Measured values reported in patent publication US20230398228A1, “ERIBULIN-BASED ANTIBODY-DRUG CONJUGATES AND METHODS OF USE” (EISAI R&D MANAGEMENT CO., LTD., priority 2016, published 2023).
Where “and” joins values, the source holds several entries; their conditions need not be identical. Identical values can stand only once. Entries after “also recorded” stand apart in the source; their conditions may differ.

Key:
[1] = Maximum tolerated dose of MORAb-202 in CD-1 mice; format: in vivo, mouse
Procedure: Body weight was measured prior to dose on the dosing day, 24 hours post dose, and three times a week thereafter. […] Two weeks after dosing, the terminal body weight was measured and recorded. Euthanized mice at the end of the study (and if any mouse euthanized or found dead during the study) were processed for necropsy. Organs were examined for signs of tissue damage.

[2] = test system: NUGC3 cells; assay: Crystal Violet cytotoxicity assay (Example 4), NUGC3; format: cell-based, human; details: listed as MORAb-003-VCP-eribulin
Procedure: (§1) Test reagents were serial diluted 1:3 in 2 mL deep-well dilution plates, starting at 200 nM (10 dilutions total). […] Medium was then discarded. […] Plates were read at 570 nm. Data was analyzed using GraphPad Prism 6.

[3] = test system: LXFA-737 NSCLC patient-derived xenograft; assay: NSCLC PDx model LXFA-737; format: in vivo, mouse; details: for Tumor Growth Inhibition: vehicle = 100
Source text: Tumor implantation: NSCLC tumor fragments were obtained from LXFA-737 tumor xenografts serially passaged in nude mice. After removal from donor mice, tumors were cut into fragments (3-4 mm edge length) and placed in phosphate-buffered saline (PBS) containing 10% penicillin/streptomycin. Recipient animals were anesthetized by inhalation of isoflurane and received unilateral or bilateral tumor implants subcutaneously in the flank. Tumor xenografts were implanted with one or two tumors per mouse at a take rate <65%. In the case of a bilateral take, one of these tumors was explanted prior to randomization. Animals and tumor implants were monitored daily until solid tumor growth was detectable in a sufficient number of animals. At randomization, the volume of growing tumors was determined. […] Animals not used for experiments were euthanized.
Body weight was measured prior to dose on each dosing day, and two times per week during the study. At the end of the study, the terminal body weight was measured and recorded.

[4] = test system: Endo-10590 endometrial cancer patient-derived xenograft; assay: Endometrial cancer PDx model Endo-10590
Procedure: (§2) Tumor fragments were implanted subcutaneously into the left flank of 40 NMRI nu/nu female mice, and tumor volume was monitored. Mice with a tumor volume of 100-160 mm^3 were randomized into one of four groups (Groups A-D, Table 39). […] Each group consisted of 8 animals. The day of randomization was designated as Day 0 of the experiment.
(§3) Tumor growth was evaluated by the measurement of two perpendicular diameters twice weekly, and tumor volume (TV), relative tumor volume (RTV) and treated/control (T/C) values were calculated. Body weight was also evaluated twice weekly as a parameter for toxicity, with the calculation of the body weight per group and body weight changes (BWC) relative to the start of treatment. Animals were sacrificed when the individual tumor volume exceeded 1 cm^3, or at the end of the study.

[5] = test system: NCI-N87 cells; assay: Crystal Violet cytotoxicity assay (Example 4), NCI-N87; format: cell-based, human
Procedure: as §1

[6] = test system: BT-474 cells; assay: Crystal Violet cytotoxicity assay (Example 4), BT-474; format: cell-based, human
Procedure: as §1

[7] = test system: CaOV3 cells; assay: Crystal Violet cytotoxicity assay (Example 1), CaOV3; format: cell-based, human
Procedure: Typically, test reagents were serial diluted 1:4 in 2 mL deep-well dilution plates, starting at 1 μM (10 dilutions total). 100 μL of diluted samples were added to the cell plates (starting concentration of test samples at 500 nM). […] Medium was discarded, plates were washed once with 200 μL DPBS, stained with 50 μL of 0.2% Crystal Violet solution at room temperature for 15 min, and then washed extensively with tap water. Plates were air-dried, and Crystal Violet was dissolved with 200 μL of 1% SDS solution. Plates were read at 570 nm. […] Assays were performed using a seeding density of 1,000 cells per well and compound exposure was for a total of 5 days. When shorter-term exposure was desired, medium containing cytotoxic agents was removed after 4 hours and replaced with fresh growth medium prior to 5-day incubation. For OVCAR3, CaOV3, and NCI-H2110, cells were seeded at 3,000 cells/well and incubated for 5 days with ADC.
Screening of selected ADCs was also performed in CaOV3 (human ovarian carcinoma, FR^med(++), NCI-H2110 (human non-small cell lung carcinoma, FR^med(++), and/or OVCAR3 (human ovarian carcinoma, FR^med(++)) cells. The results of this screening are provided in Table 16.

[8] = test system: Endo-12961 endometrial cancer patient-derived xenograft; assay: Endometrial cancer PDx model Endo-12961
Procedure: as §2, §3

[9] = 5 mg/kg single dose i.v., Day 21, n = 6
[10] = 5 mg/kg single dose i.v., Day 32, n = 6
[11] = 5 mg/kg single dose i.v., Day 74, n = 6
[12] = MORAb-202 5 mg/kg or eribulin 3.2 mg/kg
[13] = MORAb-202 5 mg/kg or eribulin 3.2 mg/kg, single i.v. dose

Substance: MORAb-003-maleimido-PEG2-Val-Cit-pAB-eribulin [MORAb-202]
- Body weight of individual mice ([1]; 10 mg/kg single bolus i.v., CD-1 mice, day 0 post Rx): 22.60 g and 23.50 g and 21.80 g
- Body weight, group mean ([1]; 10 mg/kg single bolus i.v., CD-1 mice, day 0 post injections): 22.6 g
- Body weight of individual mice ([1]; 10 mg/kg single bolus i.v., CD-1 mice, day 1 post Rx): 22.80 g and 23.80 g
- Body weight, group mean ([1]; 10 mg/kg single bolus i.v., CD-1 mice, day 1 post injections): 23.2 g
- Body weight of individual mice ([1]; 10 mg/kg single bolus i.v., CD-1 mice, day 2 post Rx): 23.30 g and 24.00 g and 22.90 g
- Body weight, group mean ([1]; 10 mg/kg single bolus i.v., CD-1 mice, day 2 post injections): 25.4 g
- Body weight of individual mice ([1]; 10 mg/kg single bolus i.v., CD-1 mice, day 4 post Rx): 23.30 g (2×) and 23.90 g
- Body weight, group mean ([1]; 10 mg/kg single bolus i.v., CD-1 mice, day 4 post injections): 23.5 g
- Body weight of individual mice ([1]; 10 mg/kg single bolus i.v., CD-1 mice, day 7 post Rx): 24.80 g and 25.20 g and 24.90 g
- Body weight, group mean ([1]; 10 mg/kg single bolus i.v., CD-1 mice, day 7 post injections): 25.0 g
- Body weight of individual mice ([1]; 10 mg/kg single bolus i.v., CD-1 mice, day 9 post Rx): 24.90 g and 25.30 g and 25.00 g
- Body weight, group mean ([1]; 10 mg/kg single bolus i.v., CD-1 mice, day 9 post injections): 25.1 g
- Body weight of individual mice ([1]; 10 mg/kg single bolus i.v., CD-1 mice, day 11 post Rx): 24.30 g (2×) and 25.10 g
- Body weight, group mean ([1]; 10 mg/kg single bolus i.v., CD-1 mice, day 11 post injections): 24.6 g
- Body weight of individual mice ([1]; 10 mg/kg single bolus i.v., CD-1 mice, day 14 post Rx): 25.80 g and 25.60 g and 25.70 g
- Body weight, group mean ([1]; 10 mg/kg single bolus i.v., CD-1 mice, day 14 post injections): 25.7 g
- Body weight of individual mice ([1]; 20 mg/kg single bolus i.v., CD-1 mice, day 0 post Rx): 27.40 g and 26.20 g and 21.00 g
- Body weight, group mean ([1]; 20 mg/kg single bolus i.v., CD-1 mice, day 0 post injections): 24.9 g
- Body weight of individual mice ([1]; 20 mg/kg single bolus i.v., CD-1 mice, day 1 post Rx): 28.80 g and 27.50 g and 21.40 g
- Body weight, group mean ([1]; 20 mg/kg single bolus i.v., CD-1 mice, day 1 post injections): 25.9 g
- Body weight of individual mice ([1]; 20 mg/kg single bolus i.v., CD-1 mice, day 2 post Rx): 29.30 g and 29.00 g and 22.10 g
- Body weight, group mean ([1]; 20 mg/kg single bolus i.v., CD-1 mice, day 2 post injections): 26.8 g
- Body weight of individual mice ([1]; 20 mg/kg single bolus i.v., CD-1 mice, day 4 post Rx): 30.20 g and 31.00 g
- Body weight, group mean ([1]; 20 mg/kg single bolus i.v., CD-1 mice, day 4 post injections): 28.1 g
- Body weight of individual mice ([1]; 20 mg/kg single bolus i.v., CD-1 mice, day 7 post Rx): 29.60 g and 32.00 g and 24.00 g
- Body weight, group mean ([1]; 20 mg/kg single bolus i.v., CD-1 mice, day 7 post injections): 28.5 g
- Body weight of individual mice ([1]; 20 mg/kg single bolus i.v., CD-1 mice, day 9 post Rx): 30.80 g and 31.70 g and 23.40 g
- Body weight, group mean ([1]; 20 mg/kg single bolus i.v., CD-1 mice, day 9 post injections): 28.6 g
- Body weight of individual mice ([1]; 20 mg/kg single bolus i.v., CD-1 mice, day 11 post Rx): 31.00 g and 32.40 g and 23.80 g
- Body weight, group mean ([1]; 20 mg/kg single bolus i.v., CD-1 mice, day 11 post injections): 29.1 g
- Body weight of individual mice ([1]; 20 mg/kg single bolus i.v., CD-1 mice, day 14 post Rx): 33.20 g and 32.40 g and 24.10 g
- Body weight, group mean ([1]; 20 mg/kg single bolus i.v., CD-1 mice, day 14 post injections): 29.9 g
- Body weight of individual mice ([1]; 40 mg/kg single bolus i.v., CD-1 mice, day 0 post Rx): 23.80 g and 23.30 g and 21.70 g
- Body weight, group mean ([1]; 40 mg/kg single bolus i.v., CD-1 mice, day 0 post injections): 22.9 g
- Body weight of individual mice ([1]; 40 mg/kg single bolus i.v., CD-1 mice, day 1 post Rx): 23.60 g and 23.50 g and 21.60 g
- Body weight, group mean ([1]; 40 mg/kg single bolus i.v., CD-1 mice, day 1 post injections): 22.9 g
- Body weight of individual mice ([1]; 40 mg/kg single bolus i.v., CD-1 mice, day 2 post Rx): 23.60 g and 24.60 g and 21.80 g
- Body weight, group mean ([1]; 40 mg/kg single bolus i.v., CD-1 mice, day 2 post injections): 23.3 g
- Body weight of individual mice ([1]; 40 mg/kg single bolus i.v., CD-1 mice, day 4 post Rx): 24.40 g and 24.10 g and 22.70 g
- Body weight, group mean ([1]; 40 mg/kg single bolus i.v., CD-1 mice, day 4 post injections): 23.7 g
- Body weight of individual mice ([1]; 40 mg/kg single bolus i.v., CD-1 mice, day 7 post Rx): 25.10 g and 25.50 g and 23.40 g
- Body weight, group mean ([1]; 40 mg/kg single bolus i.v., CD-1 mice, day 7 post injections): 24.7 g
- Body weight of individual mice ([1]; 40 mg/kg single bolus i.v., CD-1 mice, day 9 post Rx): 25.80 g and 25.20 g and 23.70 g
- Body weight, group mean ([1]; 40 mg/kg single bolus i.v., CD-1 mice, day 9 post injections): 24.9 g
- Body weight of individual mice ([1]; 40 mg/kg single bolus i.v., CD-1 mice, day 11 post Rx): 25.30 g and 25.00 g and 23.80 g
- Body weight, group mean ([1]; 40 mg/kg single bolus i.v., CD-1 mice, day 11 post injections): 24.7 g
- Body weight of individual mice ([1]; 40 mg/kg single bolus i.v., CD-1 mice, day 14 post Rx): 25.70 g and 25.30 g and 26.30 g
- Body weight, group mean ([1]; 40 mg/kg single bolus i.v., CD-1 mice, day 14 post injections): 25.8 g
- Body weight of individual mice ([1]; 80 mg/kg single bolus i.v., CD-1 mice, day 0 post Rx): 21.80 g and 26.50 g and 25.80 g
- Body weight, group mean ([1]; 80 mg/kg single bolus i.v., CD-1 mice, day 0 post injections): 24.7 g
- Body weight of individual mice ([1]; 80 mg/kg single bolus i.v., CD-1 mice, day 1 post Rx): 23.10 g and 27.80 g (2×)
- Body weight, group mean ([1]; 80 mg/kg single bolus i.v., CD-1 mice, day 1 post injections): 26.2 g
- Body weight of individual mice ([1]; 80 mg/kg single bolus i.v., CD-1 mice, day 2 post Rx): 23.30 g and 28.30 g (2×)
- Body weight, group mean ([1]; 80 mg/kg single bolus i.v., CD-1 mice, day 2 post injections): 26.6 g
- Body weight of individual mice ([1]; 80 mg/kg single bolus i.v., CD-1 mice, day 4 post Rx): 23.50 g and 29.50 g and 28.60 g
- Body weight, group mean ([1]; 80 mg/kg single bolus i.v., CD-1 mice, day 4 post injections): 27.2 g
- Body weight of individual mice ([1]; 80 mg/kg single bolus i.v., CD-1 mice, day 7 post Rx): 23.30 g and 30.40 g and 30.10 g
- Body weight, group mean ([1]; 80 mg/kg single bolus i.v., CD-1 mice, day 7 post injections): 27.9 g
- Body weight of individual mice ([1]; 80 mg/kg single bolus i.v., CD-1 mice, day 9 post Rx): 23.60 g and 31.00 g and 30.20 g
- Body weight, group mean ([1]; 80 mg/kg single bolus i.v., CD-1 mice, day 9 post injections): 28.3 g
- Body weight of individual mice ([1]; 80 mg/kg single bolus i.v., CD-1 mice, day 11 post Rx): 23.10 g and 29.10 g and 29.40 g
- Body weight, group mean ([1]; 80 mg/kg single bolus i.v., CD-1 mice, day 11 post injections): 27.2 g
- Body weight of individual mice ([1]; 80 mg/kg single bolus i.v., CD-1 mice, day 14 post Rx): 21.70 g and 28.40 g and 28.90 g
- Body weight, group mean ([1]; 80 mg/kg single bolus i.v., CD-1 mice, day 14 post injections): 26.3 g
- toxicity, in words ([1]; doses up to 80 mg/kg via bolus intravenous administration): no toxicity
- maximum tolerated dose (MTD) ([1]; single bolus intravenous dose, CD-1 mice): above 80 mg/kg
- body weight loss compared with PBS control, in words ([1]; single i.v. dose 10, 20, 40 or 80 mg/kg): No significant body weight loss
- cytotoxicity on NUGC3 cells, in words [2]: little killing; also recorded: low cytotoxicity
- body weight loss versus vehicle, in words ([3]; 5 mg/kg single dose): no significant body weight loss
- Tumor Volume [3, 9]: 22.9 mm^3
- Tumor Growth Inhibition [3, 9]: (2.3) %
- Tumor Volume [3, 10]: 4.7 mm^3
- Tumor Growth Inhibition [3, 10]: (0.3) %
- Tumor Volume [3, 11]: 418.3 mm^3
- tumor-free mice [3, 11]: (4/6 tumor-free)
- mice considered tumor-free at Day 32 ([3]; 5 mg/kg single dose, six mice): Five of the six
- mice that remained tumor-free through Day 74 ([3]; 5 mg/kg single dose, six mice): four
- anti-tumor activity, in words ([3]; 5 mg/kg single i.v. dose): significant tumor regression
- tumor re-growth during the study, in words [4, 12]: no significant tumor re-growth
- anti-tumor activity, in words [4, 13]: significant anti-tumor activity
- effect on body weight, in words ([4]; first week post-treatment): no body weight loss
- cytotoxicity on NCI-N87 cells, in words [5]: weak but specific killing
- cytotoxicity on BT-474 cells, in words [6]: little killing
- IC50 ([7]; CaOV3 cells, mean of replicate experiments, where performed): 3.7 nM
- cytotoxicity on CaOV3 cells, in words ([7]; Example 1): potent cytotoxicity
- tumor re-growth during the study, in words [8, 12]: no significant tumor re-growth
- anti-tumor activity, in words [8, 13]: significant anti-tumor activity
- effect on body weight, in words ([8]; first week post-treatment): no body weight loss
